Results reported in paper PMC12609799, “Novel Dual-Coenzyme Specificity and Thermostability of Malate Dehydrogenase Identified in the Cyanobacterium Microcystis aeruginosa PCC7806” (International Journal of Molecular Sciences, 2025).

Columns and labels:
purified protein [1] = substrate: NC(=O)C1=CN([C@@H]2O[C@H](COP(=O)(O)OP(=O)(O)OC[C@H]3O[C@@H](n4cnc5c(N)ncnc54)[C@H](O)[C@@H]3O)[C@@H](O)[C@H]2O)C=CC1; experiment: purified protein; assay type: biochemical, Microcystis aeruginosa; settings: oxaloacetate reduction, 100 mM Tris-HCl pH 8.0, 25 °C, apparent, varied: cofactor
purified protein [2] = substrate: NC(=O)C1=CN([C@@H]2O[C@H](COP(=O)(O)OP(=O)(O)OC[C@H]3O[C@@H](n4cnc5c(N)ncnc54)[C@H](OP(=O)(O)O)[C@@H]3O)[C@@H](O)[C@H]2O)C=CC1; experiment: purified protein; assay type: biochemical, Microcystis aeruginosa; settings: oxaloacetate reduction, 100 mM Tris-HCl pH 8.0, 25 °C, apparent, varied: cofactor

B1: MaMDH (Ma7806MDH) (Microcystis aeruginosa PCC 7806SL) (protein)
chain: MVDFYDTLIPCQSPRVSVIGAGNVGRTLAQRIAEKNLADVVLLDIVHGLPQGIALDLMEAQGIELHDSEIIGTNNYEDTAGSDIVVITAGLARKPGMSRDDLMNVNAKIVVEAATKCLKYSPEAIFIVITNPLDVMTYLVWQATGLPPQRVMGMAGVLDSSRLQTFIAMELGVSTADVHAMVLGGHGDLMLPLPRYCTVSGVPITELMDEITINRLVERTRNGGAEIVKLLQTGGAYYAPASSACTMVETILRNQSRLLPAAAYLKGEYGLQDVYLGVPCRLGCRGVESILEVRLTDAERLDLHTSAASVRQNVHLALDSLKVLM
Km (purified protein [1]): 33.140 ± 0.95 µM
kcat (purified protein [1]): 31.7 ± 1.43 s⁻¹
kcat/Km (purified protein [1]): 956000 M⁻¹ s⁻¹
Km (purified protein [2]): 113.200 ± 3.46 µM
kcat (purified protein [2]): 8.71 ± 1.45 s⁻¹
kcat/Km (purified protein [2]): 77000 M⁻¹ s⁻¹
